Molecular target: the molecule itself
Assay: PELDOR (DEER) spectroscopy; spin-labelled BetP in E. coli polar lipid proteoliposomes (lipid to protein 20:1), 200 mM Tris-HCl pH 7.5 in deuterated water, with 500 mM NaCl or with 300 mM NaCl and 5 mM betaine; Q-band, four-pulse sequence; distance distributions by Tikhonov regularisation

B1: BetP G450R5/S516R5 in the background of the C252T cys-less variant (spin-labelled glycine betaine symporter BetP of Corynebacterium glutamicum) (natural protein, UniProt P54582 1-595, looked up)
chain: MTTSDPNPKPIVEDAQPEQITATEELAGLLENPTNLEGKLADAEEEIILEGEDTQASLNWSVIVPALVIVLATVVWGIGFKDSFTNFASSALSAVVDNLGWAFILFGTVFVFFIVVIAASKFGTIRLGRIDEAPEFRTVSWISMMFAAGMGIGLMFYGTTEPLTFYRNGVPGHDEHNVGVAMSTTMFHWTLHPWAIYAIVGLAIAYSTFRVGRKQLLSSAFVPLIGEKGAEGWLGKLIDILAIIATVFGTATSLGLGALQIGAGLSAANIIEDPSDWTIVGIVSVLTLAFIFSAISGVGKGIQYLSNANMVLAALLAIFVFVVGPTVSILNLLPGSIGNYLSNFFQMAGRTAMSADGTAGEWLGSWTIFYWAWWISWSPFVGMFLARISRGRSIREFILGVLLVPAGVSTVWFSIFGGTAIVFEQNGESIWGDGAAEEQLFGLLHALPGCQIMGIIAMILLGTFFITSADSASTVMGTMSQHGQLEANKWVTAAWGVATAAIGLTLLLSGGDNALCNLQNVTIVAATPFLFVVIGLMFALVKDLSNDVIYLEYREQQRFNARLARERRVHNEHRKRELAAKRRRERKASGAGKRR
modifications: R5 spin label ((1-oxyl-2,2,5,5-tetramethylpyrrolidin-3-yl)methyl methanethiosulfonate) on the cysteines introduced at positions 450 and 516
notes: Glycine betaine symporter BetP (betaine permease), Corynebacterium glutamicum; expressed from pASK-IBA5betP; cys-less C252T background with cysteines introduced at G450 and S516; also called periplasmic spin label pair; betaine permease
- binding result: binds
